According to patent publication US20250145697A1 (WASHINGTON UNIVERSITY, published 2025):
Changes are numbered by the printed parent chain.

T1: ApoE4 amino acids 24-164, expressed on yeast (human, UniProt P02649 42-182)
T1 construct: with myc tag, on yeast cells; range counts on the mature protein; also called helix1 + 2 + 3 + 4
T1 chain: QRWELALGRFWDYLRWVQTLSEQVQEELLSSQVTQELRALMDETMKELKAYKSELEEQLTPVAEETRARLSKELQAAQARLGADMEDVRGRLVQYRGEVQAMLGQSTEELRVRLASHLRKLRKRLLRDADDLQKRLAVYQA

T2: ApoE4 amino acids 1-164, expressed on yeast (human, UniProt P02649 19-182)
T2 construct: with myc tag, on yeast cells; range counts on the mature protein; also called up to helix 4; not shown: myc tag and yeast surface-display partner
T2 chain: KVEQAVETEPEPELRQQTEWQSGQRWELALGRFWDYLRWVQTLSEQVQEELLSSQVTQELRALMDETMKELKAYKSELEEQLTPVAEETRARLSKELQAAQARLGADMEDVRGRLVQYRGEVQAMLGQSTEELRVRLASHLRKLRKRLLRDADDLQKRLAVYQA

T3: ApoE4 amino acids 1-210, expressed on yeast (human, UniProt P02649 19-228)
T3 construct: with myc tag, on yeast cells; range counts on the mature protein; also called N terminal domain; not shown: myc tag and yeast surface-display partner
T3 chain: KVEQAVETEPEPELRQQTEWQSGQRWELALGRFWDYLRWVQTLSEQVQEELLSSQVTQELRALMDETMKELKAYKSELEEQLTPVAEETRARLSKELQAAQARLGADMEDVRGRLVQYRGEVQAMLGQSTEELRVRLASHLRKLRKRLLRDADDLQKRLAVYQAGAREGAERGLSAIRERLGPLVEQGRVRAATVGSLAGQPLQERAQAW

T4: ApoE4 amino acids 54-164, expressed on yeast (human, UniProt P02649 72-182)
T4 construct: with myc tag, on yeast cells; expression in yeast printed as Low; range counts on the mature protein; also called helix2 + 3 + 4
T4 chain: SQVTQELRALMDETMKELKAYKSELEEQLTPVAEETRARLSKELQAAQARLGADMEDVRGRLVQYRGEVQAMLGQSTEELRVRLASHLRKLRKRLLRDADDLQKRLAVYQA

T5: murine ApoE (mouse, UniProt P08226 19-311)
T5 sequence (looked up): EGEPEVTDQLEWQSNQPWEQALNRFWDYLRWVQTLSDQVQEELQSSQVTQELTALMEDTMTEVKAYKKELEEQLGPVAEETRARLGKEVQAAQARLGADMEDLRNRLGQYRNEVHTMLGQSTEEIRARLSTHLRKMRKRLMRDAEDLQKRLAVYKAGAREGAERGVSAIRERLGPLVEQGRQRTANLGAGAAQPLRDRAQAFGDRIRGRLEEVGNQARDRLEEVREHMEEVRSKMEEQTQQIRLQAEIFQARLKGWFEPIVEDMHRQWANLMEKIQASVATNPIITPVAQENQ

B1: HJ158 (antibody, V domains shown)
VH: EVQLMESGGDLVKPGGSLELSCTVSGFTFNNYAMSWIRQTPEKRLEWVATISDGGTNTYFPDNVKGRFTISRDNAKSNLYLQMSHLQSEDTAMYYCAREGRGTWFAYWGQGTLVTVSA
VL: DVVMTQTPLSLPVSLGDQASISCRSSQSLVHINGNTYLHWSLQKPGQSPKLLIYKVSNRFSGVPDRFSGSGSGTDFTLKISRVEAEDLGIYFCSQNTHLPLTFGAGTKLELKR
notes: murine monoclonal antibody from hybridoma
B2: HJ1531 (antibody, V domains shown)
VH: EVQFVESGGGLVQPKGSLKLSCAASGFSFNIYAMNWVRQAPGKGLEWVARIRSKSNDYATFYADSVKDRFTISRDDSESMLYLQMNNLKIEDTAMYYCVSPYDGALAYWGQGTSVTVSS
VL: DIQMNQSPSSLFASLGDTITITCHASQNINVWLSWYQQKPGNIPKLLIYKASNLHTGVSSRFSGSGSGTDFTLTINNLQPEDIATYYCQQGQSYPLTFGAGTKLELKR
notes: as for B1
B3: HJ1536 (antibody, V domains shown)
VH: EVQFVESGGGLVQPKGSLKLSCEVSGFSFNTYAMNWVRQAPGKGLEWVARIRNKTNNYATFYADSVKDRFTISRDDSKNTLYLQMNNLKAEDTAMYFCASPYDGSFAYWGQGTLVTVSA
VL: B2 VL with F12S, V31I, S59P, D70G, N76S, N77S, Q92H, A100G, L106I
notes: as for B1
B4: HJ159 (antibody, V domains shown)
VH: QVQLQQSGPDLVKPGASVKISCKASGYTFIDYYINWAKQRPGQGLEWIGWIFPGSGSTYYNEKFKGKATLTVDKSSSTAYMFLSSLTSEDSAVFFCARYYGSSPFAYWGQGTLVTVSA
VL: DVLMTQTPLSLPVSLGDQASISCRSSQNIVYSNGNTYLEWYLQKPGQSPKLLIYKVSNRFSGVPDRFSGSGSGTYFTLKISRVEAEDLGIYYCFQGSHVPYTFGGGTKLEIKR
notes: as for B1
B5: HJ1513 (antibody, V domains shown)
VH: QIQLQQSGPELVKPGASVKISCKASGYTFTDYYINWVRQRPGQGLEWIGWIYPESFNTYYNEKFKGKATLTVDTSSNTAYMQLSSLTSEDSAVYFCARYYVSSPFAYWGQGTLVTVSA
VL: B4 VL with V30I, Y31H, Y41F, Y75D, I90V
notes: as for B1
B6: HJ1518 (antibody, V domains shown)
VH: B4 VH with D10E, I30S, A37V, T58S, S77R, F82L, F94Y, A118T
VL: B4 VL with T7S, N28S, Y31H, S32R, Y75D, I90V, K112R
notes: as for B1
B7: HJ152 (antibody, V domains shown)
VH: EVKLEESGGGLVQPGGSMKLSCAASGFSFSDAWMDWVRQSPEKGLEWVAEIRNKADNHATFYAESVKGRFTISRDDSKSSVYLQMNSLRAEDSGIYYCLLWDYWGQGTTLTVSS
VL: DIVMSQSPSSLAVSAGEKVTMSCKSSQSLLNSRTRKHFLAWYQQKPGQSPKVLIYWASSRESGVPDRFTGSGSGTDFTLTISSVQAEDLAVYYCKQSCNLPWTFGGGTKLEIKR
notes: murine monoclonal antibody from hybridoma; also called HJ152B (biotinylated)
B8: HJ1514 (antibody, V domains shown)
VH: B7 VH with K3N, S28T, F61Y, D75N, A90T, S93T, L99V
VL: B7 VL with S22T, H37N, A40T, Q43R, V52P, T69A, C98Y
notes: as for B1

What follows are binders tested against T6, recombinant alipidated human ApoE4 (human, UniProt P02649 19-317) (assay: direct ELISA on coated recombinant alipidated ApoE (0.5 ug/ml)).
T6 construct: mature; full length recombinant protein made in E. coli or bought; biotinylated for SPR; position 112 is counted on the mature protein, not on the precursor entry; also called recApoE; non-lipidated ApoE4
Method: (§1) ELISA dose response curves were generated for several anti-ApoE antibodies. Briefly, plates were coated overnight with full length recombinant alipidated ApoE2, ApoE3, or ApoE4 (0.5 μg/ml). The following days, plates were washed, blocked and then incubated with an anti-ApoE antibody. A goat, anti-mouse IgG-HRP antibody was used for secondary detection. Recombinant alipidated ApoE was either expressed solubly in E. coli and then purified, or purchased from a commercial supplier.
Target sequence in this assay (P02649 19-317 C130R): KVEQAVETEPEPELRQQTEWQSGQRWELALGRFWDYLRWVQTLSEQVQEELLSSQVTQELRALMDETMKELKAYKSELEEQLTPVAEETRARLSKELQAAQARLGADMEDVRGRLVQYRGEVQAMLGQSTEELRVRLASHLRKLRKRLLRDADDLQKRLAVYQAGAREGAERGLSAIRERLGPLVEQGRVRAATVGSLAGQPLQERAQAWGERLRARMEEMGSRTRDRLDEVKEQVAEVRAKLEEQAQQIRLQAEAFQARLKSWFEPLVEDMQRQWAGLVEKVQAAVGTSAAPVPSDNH

EC50 [nM]	Binder
0.06	B1
0.04	B2
0.05	B3
0.32	B4
0.46	B5
0.06	B6
0.35	B7
0.04	B8

What follows are binders tested against T7, recombinant alipidated human ApoE3 (human, UniProt P02649 19-317) in the same assay as above.
T7 construct: mature; full length recombinant protein made in E. coli or bought
Method: as §1

T7 sequence (P02649 19-317): as the sequence (P02649 19-317 C130R) above, with R112C counted along it

EC50 [nM]	Binder
0.09	B1
0.05	B2
0.1	B3
1.9	B4
1.26	B5
0.258	B6
0.13	B7
0.23	B8

The binders below were run against T8, recombinant alipidated human ApoE2 (human, UniProt P02649 19-317) in the same assay as above.
T8 construct: mature; full length recombinant protein made in E. coli or bought
Method: as §1

EC50 [nM]	Binder
0.07	B1
0.05	B2
0.09	B3
~100	B5
~100	B8

The binders below were run against T6, recombinant alipidated human ApoE4 (assay: SPR (Biacore T200), biotinylated ApoE4 captured on anti-biotin mAb chip, antibody injected, 1:1 fit).
Method: The affinity of several anti-ApoE antibodies for ApoE4 was determined by surface plasmon resonance using a BIAcore T200. Anti-biotin monoclonal mouse antibody was immobilized on a Biacore Series S CM5 sensor chip. Biotinylated recombinant alipidated ApoE4 was then captured on to the chip. Serial dilutions of each antibody were injected at a flow rate of 30 μl/min. Each sample was analyzed, for example, with 3-minute association and 10-minute dissociation. After each injection the chip was regenerated using 3 M MgCl₂ or another appropriate buffer. Binding response was corrected by subtracting the response units (RUs) from a flow cell capturing an irrelevant IgG at similar density. A 1:1 Languir model of simultaneous fitting of Kₒₙ and Koff was used for kinetics analysis. Recombinant alipidated ApoE4 was either expressed in soluble form in E. coli and then purified, or purchased from a commercial supplier.

Kd [nM]	koff [s⁻¹]	kon [M⁻¹ s⁻¹]	Binder
391	0.0074	18900	B4
135	0.000858	6360	B5
206	0.00946	45900	B6
249	0.00116	4660	B7
< 0.781	< 1e-05	12800	B8

Target: T1, ApoE4 amino acids 24-164, expressed on …
Assay: yeast display of myc-tagged ApoE4 fragment, antibody staining
Method: (§2) Epitope binding of various anti-ApoE antibodies was evaluated multiple ways. Different sequences of human ApoE were expressed on the surface of yeast by yeast display using different plasmids. Different anti-ApoE antibodies were then assessed to determine binding to the different ApoE sequences by immunofluorescence of the yeast cell surface (Table 4). Because none of the anti-ApoE antibodies tested here recognize murine ApoE, the epitope was further narrowed down by comparison of the murine and human ApoE sequences as shown in Tables 4 and 5. DNA constructs containing different regions of ApoE4 with myc tag were transformed into yeast cells. Yeast cells were incubated with HJ15x to detect binding or anti-myc antibody to detect expression.

binding result	Binder
binds	B4
binds	B5
binds	B6
binds	B7
binds	B8

Target: T2, ApoE4 amino acids 1-164, expressed on …
Assay: as above
Method: as §2

binding result	Binder
binds	B4
binds	B5
binds	B6
binds	B7
binds	B8

Target: T3, ApoE4 amino acids 1-210, expressed on …
Assay: as above
Method: as §2

binding result	Binder
binds	B4
binds	B5
binds	B6
binds	B7
binds	B8

Target: T4, ApoE4 amino acids 54-164, expressed on …
Assay: as above
Method: as §2

binding result	Binder
binds	B4
binds	B5
binds	B6
binds	B7
binds	B8

The binders below were run against T5, murine ApoE (assay: Western blot of mouse brain lysates).
Text: Brain lysates from apoE KO mice or mice expressing human apoE3, human apoE4 or murine apoE were immunoblotted with HJ151, HJ152, HJ153, and HJ154. A commercial apoE antibody GA-50 was used as a positive control.

binding result	Binder
no binding	B7
